Data reported in patent US10266566.
*1 amine or outer side, *2 acyl side, *3 side chain or, on linkers, in order; H or OH if unused. Where no end group is shown, it is not given here. [ ]: non-standard residue; d: D form. Trp(For) = Nin-formyl-tryptophan, O=Cn1cc(C[C@H](N[*:1])C(=O)[*:2])c2ccccc21; Tyr(Me) = O-methyl-tyrosine, COc1ccc(C[C@H](N[*:1])C(=O)[*:2])cc1; Phe(4-CONH2) = NC(=O)c1ccc(C[C@H](N)C(=O)O)cc1; Trp(1-Me) = Cn1cc(C[C@H](N)C(=O)O)c2ccccc21; Phe(4-Me) = Cc1ccc(C[C@H](N)C(=O)O)cc1; Cit = NC(=O)NCCC[C@H](N)C(=O)O; Lys(Me) = CNCCCC[C@H](N)C(=O)O

Columns and labels:
[1] = target: Human polyclonal immunoglobulin G (IgG) (human); assay: affinity chromatography of Cohn fraction II+III on peptide resin; binding buffer PBS + 0.25M NaCl
[2] = target: Human polyclonal immunoglobulin G (IgG) (human); assay: affinity chromatography of Cohn fraction II+III on peptide resin; binding buffer PBS + 0M NaCl
[3] = target: Human polyclonal immunoglobulin G (IgG) (human); assay: affinity chromatography of Cohn fraction II+III on peptide resin; binding buffer PBS + 0.13M NaCl
[4] = target: Human polyclonal immunoglobulin G (IgG) (human); assay: affinity chromatography, peptide on Toyopearl resin, pure human IgG load; yield = IgG eluted/IgG loaded, by Protein G chromatography
[5] = target: Human polyclonal immunoglobulin G (IgG) (human); assay: affinity chromatography, peptide resin, 10 mg/mL hIgG in PBS; 3rd run, after alpha-chymotrypsin and then trypsin
[6] = target: Human polyclonal immunoglobulin G (IgG) (human); assay: affinity chromatography, peptide resin, 10 mg/mL hIgG in PBS; 2nd run, after resin contacted with alpha-chymotrypsin
[7] = target: Human polyclonal immunoglobulin G (IgG) (human); assay: affinity chromatography, peptide resin, 10 mg/mL hIgG in PBS; 1st run, before any enzyme

Row | Binder | IgG yield [1] [%] | IgG yield [2] [%] | IgG yield [3] [%] | IgG yield [4] [%] | IgG yield [5] [%] | IgG yield [6] [%] | IgG yield [7] [%]
1 | Ac-HWRGWV-{Toyopearl AF‑Amino‑650M resin} [Ac-HWRGWV] | 83 | 91 | 84 |  |  |  | 
2 | H[Trp(1-Me)]RG[Trp(1-Me)]V-{Toyopearl AF‑Amino‑650M resin} [HWMetRGWMetV] |  |  |  | 91 | 82 | 91 | 91
3 | H[Tyr(Me)][Phe(4-Me)][Lys(Me)][Phe(4-Me)]D-{Toyopearl AF‑Amino‑650M resin} [HYMetFMetKMetFMetD] |  |  |  | 49 |  |  | 
4 | H[Trp(For)][Cit]G[Trp(For)]V (not fully specified (C-terminus)) [HWForCitGWForV] |  |  |  | 75 | 69 | 69 | 75
5 | HW[Cit]GWV-{Toyopearl AF‑Amino‑650M resin} [HWCitGWV] |  |  |  | 91 | 71 | 73 | 91
6 | H[Phe(4-CONH2)][Cit][Cit]HL [HFCarbCitCitHL] |  |  |  | 53 |  |  | 
